Assay [1] relates to murine model of bleomycin-induced fibrosis. Nature of the assay: Bleomycin-induced murine lung fibrosis model: body weight and body weight metrics. Type of assay: in vivo, mice.
A further assay relates to plasma Gal3. Briefly: HOCI-induced murine fibrosis model: plasma Gal3 (ELISA). Type of assay: in vivo, mice. The settings on record: first experiment, day 42; FIG. 10. As for the experimental part: (§1) In a first experiment, control mice (n=12) received a daily intradermal injection of 300 μL of sterile phosphate buffer saline (PBS) for 5 consecutive days per week, for a duration of 42 days. HOCI alone and HOCI with antibody (HOCI-antibody) treated mice (n=12 per group) received a daily intradermal injection of 300 μL of HOCI for 5 consecutive days per week, for a duration of 42 days. Antibody-treated mice also received a subcutaneous injection of 20 mg/kg antibody, starting at day minus one and every 5 days between day 5 and day 40. Each antibody was solubilized in sterile, endotoxin-free PBS before injection. In a second experiment, the same protocol was applied, except that duration of the study was 63 days and antibodies were given every 7 days starting at day minus 1 until day 62.
(§2) Mice that received daily injection of HOCI were also treated by intratracheal instillation of 0.5 mg/kg of TD139 compound (HOCI-TD139), a small molecule Gal3 inhibitor. In a first experiment, the administrations started from day 21 and the compound was given every 3 days until day 39. In a second experiment, the administrations started from day 20 and the compound was given every 3 days until day 62. TD139 was initially dissolved in 100% DMSO then diluted 50-fold in endotoxin-free PBS before administration.
In the first experiment, the plasma levels of Gal3 were measured at day minus 1 (before antibody administration) and at termination day (day 42) using a mouse Galectin-3 DuoSet ELISA kit (R&D Systems, DY1197) according to the manufacturer's instructions. Plasma samples were diluted 1:200 in order to fit with the dynamic range of the assay.
In general terms: An ELISA detects its analyte on a solid surface through an enzyme-linked reagent.

The subject of another assay is plasma TNF alpha. Briefly: Rat ARDS model (LPS challenge): plasma TNF alpha (MSD). Type of assay: in vivo. As to conditions: 4 h following LPS challenge; vs LPS group; FIG. 18. Here is the method:
(§3) Positive control rats received 3 doses of sterile phosphate buffer at day minus 11, minus 6 and minus 1 prior LPS challenge (0.25 mg/kg by subcutaneous route at day 1). Negative control rats received one oral dose of Dexamethasone at 10 mg/kg (dissolved in 0.5% carboxymethyl cellulose in deionized water) 2 hours prior LPS challenge (0.25 mg/kg by subcutaneous route at day 1). LPS (lipopolysaccharide) causes an acute inflammatory response, whereas dexamethasone has anti-inflammatory effects thus being the reference treatment in this model.
(§4) Antibody-treated rats received 3 doses of antibodies (14 mg/kg) at day minus 11, minus 6 and minus 1 prior to LPS challenge (0.25 mg/kg by subcutaneous route at day 1). Each antibody was solubilized in sterile PBS before injection.
(§5) Control rats of the experiment received 3 doses of sterile phosphate buffer at day minus 11, minus 6 and minus 1 without LPS challenge at day 1.
For all rats, plasma sampling was performed 4 h following LPS challenge.
The impact of anti-Gal3 antibody treatment in LPS challenged rats were evaluated on plasma cytokine levels, namely TNF alpha and KC-GRO cytokines, and compared to the positive control group (LPS challenge with PBS treatment) (respectively FIG. 18A and FIG. 18B). TNF alpha and KC-GRO were quantified by using the MSD technology from Mesoscale.

The test system of a further assay is plasma IL-6. Briefly: HOCI-induced murine fibrosis model: plasma IL-6 (MSD). Type of assay: in vivo, mice. The settings on record: first experiment, day 42; vs HOCI group; FIG. 9. As for the experimental part:
as §1, §2
(§6) In the first experiment, a mixed effect model with repeated measurements was performed on Control group, HOCI treated group, HOCI-antibody- and HOCI-TD139-treated groups. The impact of HOCI administration on plasma IL-6 and IL-5 levels was evaluated compared to the control group. The impact of antibody and TD139 treatments was compared to the HOCI group (FIG. 9). IL-6 and IL-5 were quantified by using the MSD technology from Mesoscale.

For assay [2], the system named is rat model of ARDS. Nature of the assay: Rat ARDS model (LPS challenge): neutrophils counts in BALF. Type of assay: in vivo. The settings on record: antibodies 14 mg/kg x3 prior to LPS; dexamethasone 10 mg/kg oral; vs LPS group; FIG. 16. Here is the method: as §3, §4, §5
The impact of anti-Gal3 antibody treatment in LPS challenged rats were evaluated by quantification of neutrophils in Bronchoalveolar Lavage Fluid and compared to the positive control group (LPS challenge with PBS treatment) (FIG. 16). […] Neutrophils numeration levels were decreased after treatment with anti-inflammatory dexamethasone.

Assay [3] concerns murine model of HOCI-induced fibrosis. Nature of the assay: HOCI-induced murine fibrosis model: skin thickness. Type of assay: in vivo, mice.
A further assay concerns plasma IL-5. Briefly: HOCI-induced murine fibrosis model: plasma IL-5 (MSD). Type of assay: in vivo, mice. As to conditions: first experiment, day 42; vs HOCI group; FIG. 9. As for the experimental part: as §1, §2, §6
For assay [4], the system named is rat model of ARDS. Nature of the assay: Rat ARDS model (LPS challenge): total BALF protein (BCA assay). Type of assay: in vivo. As to conditions: antibodies 14 mg/kg x3 prior to LPS; dexamethasone 10 mg/kg oral; vs LPS group; FIG. 17. As for the experimental part: as §3, §4, §5
The impact of anti-Gal3 antibody treatment in LPS challenged rats were evaluated by quantification of proteins (by BCA assay) in BALF and compared to the positive control group (LPS challenge with PBS treatment) (FIG. 17). The presence of protein in BALF reflects the damage to the air-blood barrier. […] Total BALF protein numeration levels were decreased after treatment with anti-inflammatory dexamethasone.

Setting [5] is: bleomycin 1.65 mg/kg, antibody 20 mg/kg s.c.

B1: E07: anti-Gal3 monoclonal antibody, IgG1 format; VH SEQ ID NO 42, VL SEQ ID NO 43 (antibody, V domains shown)
VH: EVQLVESGGSLVKPGGSLRLSCAASGFTFSNYNMNWVRQAPGKGLEWISNIYGSSRYIYYADFVKGRFTISRDNAKNSLYLQMNSLRAEDTAVYYCVRSYYGGMDVWGRGTLVTVSS
VL: QSVLTQPASVSGSPGQSITISCAGTSSDVGGYYSVSWYQQHPGKAPKLMIYYDSNRPSGVSNRFSGSKSGNTASLTISGLQAEDEADYYCSSYTGYSTRVFGGGTKLEIK
Regarding B1, the “body weight status on day 21” value in assay [1] (setting [5]) is given as “full weight recovery”. For the same molecule, the “day from which body weight reached values close to those of control mice” value in assay [1] (setting [5]) was 18 days. Moreover, the “recovery of body weight” value in assay [1] (bleomycin 1.65 mg/kg, antibody 20 mg/kg s.c., FIG. 12) is “more rapid recovery of body weight”. In addition, in assay [1] (median TWG 10 days for untreated bleomycin group, FIG. 13), the “reduction of median Time to weight growth (TWG)” value is recorded as 2 days. In the assay on plasma Gal3, the “plasma Gal3 levels” value is listed as “restored the plasma Gal3 levels to values similar to those of the control group”. Further, the “TNF alpha plasma levels” value in the assay with plasma TNF alpha was “also decreased, displaying an intermediary profile”. The “plasma IL-6 levels” value in the assay with plasma IL-6 is given as “significantly decreased the plasma IL-6 levels to values similar to those of control mice”. In addition, the “neutrophils counts in BALF” value with rat model of ARDS [2] is reported as “also decreased”. The “HOCI-induced increase in skin thickness” value in assay [3] (first experiment, 42 days, antibody 20 mg/kg s.c., TD139 0.5 mg/kg intratracheal, vs HOCI group, FIG. 7A) is “significantly reduced”; in assay [3] (second experiment, 63 days, antibody 20 mg/kg s.c. every 7 days, sustained effect until day 63, FIG. 7B) it was “significantly reduced”. The “day from which reduction of skin thickness was significant” value in assay [3] (first experiment, sustained effect until day 42) stood at 21 days; in assay [3] (second experiment, sustained effect until day 63) it was 7 days. Moreover, the “plasma IL-5 levels” value with plasma IL-5 is given as “decreased significantly”. Moreover, in the assay on rat model of ARDS [4], the “total BALF protein” value is “also decreased with a statistic significance”.

Source of the values: patent US20250215091A1, “Anti-GAL3 Antibodies and Compositions” (Les Laboratoires Servier, priority 2022, published 2025).
